Five molecules from patent US20060035283A1 (CHILDREN S MEDICAL CENTER, published 2006) can be followed below.

First the molecules themselves.
B1: full-length mouse RasGRF1 (other, UniProt P27671 1-1262, looked up)
chain: MQKAIRLNDGHVVTLGLLAQKDGTRKGYLSKRSADNPKWQTKWFALLQNLLFYFESDSSPRPSGLYLLEGSICKRAPSPKRGTSSKESGEKQQHYFTVNFSNDSQKTLELRTEDAKDCDEWVAAIARASYKILATEHEALMQKYLHLLQVVETEKTVAKQLRQQLEDGEVEIERLKTEVTITNLIKDNDRIQSSNKAGSADDEDSDIKKIKKVQSFLRGWLCRRKWKNIIQDYIRSPHADSMRKRNQVVFSMLEAEAEYVQQLHILVNNFLRPLRMAASSKKPPITHDDVSSIFLNSETIMFLHQIFYQGLKARISSWPTLVLADLFDILLPMLNIYQEFVRNHQYSLQILAHCKQNRDFDKLLKQYEAKPDCEERTLETFLTYPMFQIPRYILTLHELLAHTPHEHVERNSLDYAKSKLEELSRIMHDEVSETENIRKNLAIERMITEGCEILLDTSQTFVRQGSLMQMSLSEKSKSSRGRLGSLSTKKEGERQCFLFSKHLIICTRGSGGKLHLTKNGVISLIDCTLLDEPENLDDEAKGAGPEIEHLEFKIGVEPKDSLPFTVILVASTRQEKAAWTSDIIQCVDNIRCNGLMMNAFEENSKVTVPQMIKSDASLYCDDVDIRFSKTMNSCKVLQIRYASVERLLERLTDLRFLSIDFLNTFLHSYRVFTNAMVVLDKLINIYRKPMSAIPARSLELLFSSSHNAKLLYGDAPKSPRASRKFSSPPPLAIGTSSPSRRRKLSLNIPIITGGKALELASLGCSSDSYANIHSPISPFGKTTLDTGKLCMASSLPKTPEEIDVPATIPEKPGELSASRKHSSDVLKEESEDDQNHSDEDNTEVSPVKSPPTPKSFLNRTITEFPFFNYNNGILMTTCRDLVDNNRSTLSATSAFAIATAGANEGPSNKEVFRRMSLANTGFSSDQRNIDKEFVIRRAATNRVLNVLRHWVTKHTQDFDTDDTLKYRVICFLEEVMHDPDLLTQERKAAANIIRTLTLEETTEQHSMLEEVILMTEGVKTEPFENHPALEIAEQLTLLDHLVFKSIPYEEFFGQGWMKAEKYERTPYIMKTTKHFNHVSNFIASEIIRNEDISARASAIEKWVAVADICRCLHNYNAVLEITSSINRSAIFRLKKTWLKVSKQTKSLLDKLQKLVSSDGRFKNLRESLRNCDPPCVPYLGMYLTDLVFIEEGTPNYTEDGLVNFSKMRMISHIIREIRQFQQTTYKIDPQPKVIQYLLDESFMLDEESLYESSLLIEPKLPT
notes: Full-length; also called in vitro translated RasGRF1; mouse RasGRF1 in pcDNA3
B2: HA-tagged RasGRF1 fragment, amino acids 835-913 (other)
chain: TPKSFRNRITQEFPLFNYNSGIMMTCRDLMDSNRSPLSATSAFAIATAGANESPANKEIYRRMSLANTGYSSDQRNIDK
notes: In vitro translated, 35S-labelled; not shown: HA tag encoded by the 5' primer
B3: HA-tagged RasGRF1 fragment, amino acids 714-841 (other)
chain: RASRKFSSPPPLAIGTSSPVRRRKLSLNIPIITGGKALELASLGCPSDGYTNIHSPISPFGKTTLDTSKLCVASSLTRTPEEIDMTTLEESSGFRKPTSDILKEESDDDQSDVDDTEVSPPTPKSFRN
notes: as for B2
B4: HA-tagged RasGRF1 fragment, amino acids 1-720 (other)
chain: MQKAIRLNDGHVVSLGLLAQRDGTRKGYLSKRSSDNPKWQTKWFALLQNLLFYFESDSSSRPSGLYLLEGSICKRMPSPKRGTSSKESDKQHHYFTVNFSNDSQKSLELRTDDSKDCDEWVAAIARASYKILATEHEALMQKYLHLLQVVETEKTVAKQLRQQLEDGEVEIERLKAEIANLIKDNERIQSNQLVAPEDEDSDIKKIKKVQSFLRGWLCRRKWKNIIQDYIRSPHADSMRKRNQVVFSMLEAEAEYVQQLHILVNNFLRPLRMAASSKKPPITHDDVSSIFLNSETIMFLHQIFYQGLKARIASWPTLVLADLFDILLPMLNIYQEFVRNHQYSLQILAHCKQNRDFDKLLKQYEAKPDCEERTLETFLTYPMFQIPRYILTLHELLAHTPHEHVERNSLDYAKSKLEELSRVMHDEVSETENIRKNLAIERMITEGCEILLDTSQTFVRQGSLIQVPMSEKGKINKGRLGSLSLKKEGERQCFLFSKHLIICTRGSGSKLHLTKNGVISLIDCTLLDDPENMDDDGKGQEVDHLDFKIWVEPKDSPPFTVILVASSRQEKAAWTSDIIQCVDNIRCNGLMMNAFEENSKVTVPQMIKSDASLYCDDVDIRFSKTMNSCKVLQIRYASVERLLERLTDLRFLSIDFLNTFLHSYRVFTDAVVVLDKLISIYKKPITAIPARSLELLFSSSHNTKLLYGDAPKSPRASRKFS
notes: In vitro translated, 35S-labelled; also called N-terminal portion of RasGRF1; not shown: HA tag encoded by the 5' primer
B5: AU1-tagged NR2B fragment, amino acids 1136-1310 (other)
chain: QFRTKENSPHWEHVDLTDIYKERSDDFKRDSVSGGGPCTNRSHLKHGTGEKHGVVGGVPAPWEKNLTNVDWEDRSGGNFCRSCPSKLHNYSSTVAGQNSGRQACIRCEACKKAGNLYDISKDNSLQELDQPAAPVAVTSNASSTKYPQSPTNSKAQKKNRNKLRRQHSYDTFVDL
notes: In vitro translated, 35S-labelled; also called distal portion of the bait; not shown: AU1 tag encoded by the 5' primer

In assay [1] the target is T1, GFP rat NR2A (expressed in HEK293T cells) (rat, UniProt Q00959 23-1464).
T1 construct: whole, on cells; not shown: GFP
The assay is described as follows: co-immunoprecipitation from co-transfected HEK293T cells. The method, then: Transfected cells were solubilized in lysis buffer (100 mM Tris-Cl [pH 8.5], 500 mM NaCl, 1% Triton X-100) supplemented with corn plete protease inhibitor (Roche) and immunoprecipitated with NR2B (Santa Cruz, sc-9057), NR1, or NR2A (Chemicon) antibody (5 μg/ml), washed with lysis buffer, separated on SDS gel, and blotted on PVDF. Blots were probed with anti-RasGRF1 (Santa Cruz) and the appropriate NR subunit antibody. 6- to 8-week-old rat brain P2 microsomes were isolated and solubilized as described (Luo, J., et al. (1997) Mol. Pharmacol. 51, 79-86). 80 μg of solubilized protein were immunoprecipitated with NR2B, RasGRF1, or pooled rabbit IgG, and immunoprecipitated proteins were probed on Western blot with RasGRF1 and NR2B antibodies. All immunoprecipitation experiments were only taken as valid if repeated 3-5 times with similar results. Routine negative controls with antigen pre-absorption were carried out for antibodies used in immunoprecipitation experiments. Also, all immunoprecipitating antibodies were tested for the cross-reactivity with in vitro translated co-immunoprecipitated molecules.

Assay [2] addresses T2, in vitro translated full-length NR2B (Rattus norvegicus (Rat), UniProt Q00960 1-1482, limits assumed).
T2 construct: Full-length, 35S-labelled, translated in vitro
The assay is described as follows: co-immunoprecipitation of in vitro translated proteins with anti-HA. As to the method: For in vitro binding experiments, equimolar amounts of in vitro translated ³⁵S-labeled proteins (calculated from radioactivity of the excised protein band and cysteine content in the specific fragment) were incubated with a 3-fold molar excess of translated RasGRF1 for 30 min at 30° C., diluted with RIPA buffer, and immunoprecipitated with anti-HA-agarose (Santa Cruz). In competition experiments, RasGRF1 and NR2B were immunoprecipitated for 2 hr at 4° C. from solubilized rat brain microsomes in the presence of 10 μM NusA, 10 μM NusA-RasGRF1-BD, or 5 μM NusA-NR2B-BD.

The target of assay [3] is B1. The assay is described as follows: co-immunoprecipitation of in vitro translated proteins with AU1 antibody.

T2 sequence (Q00960 other isoform, or with tags, fused parts or gaps limits assumed): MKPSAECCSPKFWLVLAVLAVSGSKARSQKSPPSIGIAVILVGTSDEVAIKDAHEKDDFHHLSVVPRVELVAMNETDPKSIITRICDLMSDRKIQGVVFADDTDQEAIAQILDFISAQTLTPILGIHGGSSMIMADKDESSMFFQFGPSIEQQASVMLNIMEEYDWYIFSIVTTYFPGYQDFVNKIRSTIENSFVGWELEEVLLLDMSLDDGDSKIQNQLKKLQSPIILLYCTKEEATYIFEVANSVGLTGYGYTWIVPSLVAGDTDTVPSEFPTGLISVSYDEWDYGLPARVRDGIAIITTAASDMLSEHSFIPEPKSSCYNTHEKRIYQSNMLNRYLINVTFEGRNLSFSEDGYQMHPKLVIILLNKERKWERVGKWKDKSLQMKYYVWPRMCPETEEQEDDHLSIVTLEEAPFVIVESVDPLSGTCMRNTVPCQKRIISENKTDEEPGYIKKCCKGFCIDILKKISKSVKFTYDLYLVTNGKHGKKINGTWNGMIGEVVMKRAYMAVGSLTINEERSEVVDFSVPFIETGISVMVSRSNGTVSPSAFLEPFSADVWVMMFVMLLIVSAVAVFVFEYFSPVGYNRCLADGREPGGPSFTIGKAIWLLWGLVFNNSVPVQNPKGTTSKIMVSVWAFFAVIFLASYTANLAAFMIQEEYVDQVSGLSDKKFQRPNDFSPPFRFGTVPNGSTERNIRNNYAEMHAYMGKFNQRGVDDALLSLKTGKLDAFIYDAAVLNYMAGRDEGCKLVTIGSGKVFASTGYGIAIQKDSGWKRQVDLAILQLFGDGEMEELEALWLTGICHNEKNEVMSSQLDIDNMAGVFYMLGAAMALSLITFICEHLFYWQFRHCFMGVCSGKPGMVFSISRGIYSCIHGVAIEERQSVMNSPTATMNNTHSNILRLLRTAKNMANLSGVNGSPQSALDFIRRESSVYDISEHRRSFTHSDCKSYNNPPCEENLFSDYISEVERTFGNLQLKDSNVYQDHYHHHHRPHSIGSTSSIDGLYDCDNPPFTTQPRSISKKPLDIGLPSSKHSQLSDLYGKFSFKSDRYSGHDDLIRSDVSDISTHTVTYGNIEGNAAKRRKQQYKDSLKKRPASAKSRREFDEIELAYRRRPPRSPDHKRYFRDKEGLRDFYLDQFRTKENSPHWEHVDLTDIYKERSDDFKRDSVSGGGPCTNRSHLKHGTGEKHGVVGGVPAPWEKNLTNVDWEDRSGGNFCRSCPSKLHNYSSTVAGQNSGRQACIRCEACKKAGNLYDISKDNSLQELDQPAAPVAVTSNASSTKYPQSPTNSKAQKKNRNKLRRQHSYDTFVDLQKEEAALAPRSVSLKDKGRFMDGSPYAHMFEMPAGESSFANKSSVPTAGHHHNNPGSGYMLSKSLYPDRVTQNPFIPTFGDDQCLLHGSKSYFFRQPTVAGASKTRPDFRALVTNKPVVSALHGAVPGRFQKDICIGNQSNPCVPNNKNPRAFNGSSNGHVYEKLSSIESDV
T1 sequence (Q00959 23-1464): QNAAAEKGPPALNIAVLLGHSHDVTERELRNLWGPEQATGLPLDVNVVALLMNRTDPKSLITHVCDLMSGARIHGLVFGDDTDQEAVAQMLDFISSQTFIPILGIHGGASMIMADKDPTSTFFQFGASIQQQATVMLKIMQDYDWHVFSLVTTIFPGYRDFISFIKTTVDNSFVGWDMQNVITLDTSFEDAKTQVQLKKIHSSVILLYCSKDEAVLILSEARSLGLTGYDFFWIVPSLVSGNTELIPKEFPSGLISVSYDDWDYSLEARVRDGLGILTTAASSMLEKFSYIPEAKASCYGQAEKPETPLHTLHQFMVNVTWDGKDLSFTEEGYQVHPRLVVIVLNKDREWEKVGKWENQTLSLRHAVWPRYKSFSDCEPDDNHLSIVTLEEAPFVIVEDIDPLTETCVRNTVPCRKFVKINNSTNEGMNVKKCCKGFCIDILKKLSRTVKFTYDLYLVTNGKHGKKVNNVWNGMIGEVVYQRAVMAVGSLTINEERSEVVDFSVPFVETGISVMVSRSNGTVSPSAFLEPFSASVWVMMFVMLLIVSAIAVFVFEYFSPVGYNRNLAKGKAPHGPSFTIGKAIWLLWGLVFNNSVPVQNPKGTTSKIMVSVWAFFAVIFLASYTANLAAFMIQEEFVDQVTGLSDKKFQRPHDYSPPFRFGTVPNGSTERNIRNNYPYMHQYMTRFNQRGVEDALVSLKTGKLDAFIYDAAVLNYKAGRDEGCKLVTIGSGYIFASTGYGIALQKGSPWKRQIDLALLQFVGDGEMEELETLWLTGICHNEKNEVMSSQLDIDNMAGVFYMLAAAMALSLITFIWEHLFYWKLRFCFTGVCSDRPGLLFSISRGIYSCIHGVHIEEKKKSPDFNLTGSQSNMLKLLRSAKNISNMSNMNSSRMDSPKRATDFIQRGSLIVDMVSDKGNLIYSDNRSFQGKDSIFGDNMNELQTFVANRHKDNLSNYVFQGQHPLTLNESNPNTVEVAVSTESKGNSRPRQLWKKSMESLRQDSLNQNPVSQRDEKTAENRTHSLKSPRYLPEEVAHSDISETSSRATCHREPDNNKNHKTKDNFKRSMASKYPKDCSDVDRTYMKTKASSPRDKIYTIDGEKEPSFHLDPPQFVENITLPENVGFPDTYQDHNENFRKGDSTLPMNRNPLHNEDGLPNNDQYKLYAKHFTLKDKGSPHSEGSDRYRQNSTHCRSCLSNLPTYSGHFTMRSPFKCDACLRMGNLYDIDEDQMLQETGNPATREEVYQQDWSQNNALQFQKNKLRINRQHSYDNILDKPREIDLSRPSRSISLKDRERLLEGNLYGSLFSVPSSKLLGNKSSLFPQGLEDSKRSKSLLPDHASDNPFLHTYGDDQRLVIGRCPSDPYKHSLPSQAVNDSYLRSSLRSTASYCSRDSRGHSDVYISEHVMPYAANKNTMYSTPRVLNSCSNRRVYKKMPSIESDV

Consider B1, for which, in assay [1], the binding result is given as “no binding”.

Take B2: the binding result in assay [2] was “no binding”.

On to B3, for which the binding result in assay [2] is given as “no binding”. Same read-out and setting: under B4 stands “no binding”. In the case of B5, the binding result in assay [3] is listed as “no binding”.
